Here are results for one molecule from patent US6710030B1, “Contortrostain (CN) and methods for its use in preventing metastasis and other conditions” (University of Southern California, priority 1993, dated 2004).

In assay [1] the test system is adhesion formation during wound healing. The experiment in a line: Rabbit model of adhesion formation (uterine horns). The class given is in vivo. As to conditions: Alzet pumps, 10 μl/hr (36 μg/ml). The method, then: In preliminary studies in a rabbit model of adhesion formation, abrasion and devascularization of the uterine horns of rabbits were employed to induce adhesion formation during wound healing in untreated animals [Rodgers, K. et al., Int. J. Fertil. 35:40 (1990)]. Alzet pumps were employed to continuously deliver CN at a rate of 10 μl/hr (36 μg/ml). […] Therefore, compositions and methods for preventing adhesion formation whereby an amount of CN effective to prevent adhesion formation is administered to a patient in need of such treatment are also contemplated as within the scope of the present invention.

Assay [2] deals with MDA-MB-435 cells. The experiment in a line: Invasion of MDA-MB-435 cells through Matrigel-coated invasion chamber. The class given is cell-based, human. As to conditions: 48 hrs. The method, then: 2.5×10^3 MDA-MB-435 cells treated with various concentration of CN were allowed to migrate across the Matrigel layer for 48 hrs. Assays at each CN concentration were performed in triplicate. Cells invaded through the Matrigel filter were fixed and stained. Invaded cells were quantitated with microscope by the mean of cell numbers in three randomly selected vision field.

In another assay the test system is T24 cells. The experiment in a line: Phosphotyrosine immunoblot, T24 cells. The class given is cell-based, human. The method, then: (§1) Cell culture, preparation and stimulation—T24 cells were maintained in RPMI 1640 medium containing 5% fetal bovine serum, and MDA-MB-435 and 293 cells were maintained in Dulbecco's modified Eagle's medium with 10% serum at 37° C. in 5% CO2. Cells were washed with phosphate-buffered saline (PBS) and starved in the appropriate serum-free medium for 6 h at 37° C. Cells were detached by brief treatment with 0.05% trypsin/0.02% EDTA in PBS and collected by centrifugation, resuspended in soybean trypsin inhibitor (1 mg/ml in serum-free medium), and washed in 2% bovine serum albumin/serum-free medium. Cells were maintained in suspension for 1 h in 2% bovine serum albumin/serum-free medium at 37° C. with end-over-end agitation. Quiescent cells (3×10^6/ml) were treated with disintegrins or other reagents while in suspension, or were allowed to adhere to Matrigel (Becton Dickinson, Bedford, Mass.) diluted 1:100 with serum-free medium during treatment.
Lysate preparation and immunoprecipitation—Suspended and adherent cells were washed twice with cold PBS and lysed in cold lysis buffer (50 mM Tris, pH 8.0, 150 mM NaCl, 1% Nonidet P-40, 0.5% deoxycholate, 0.1% SDS, protease inhibitor cocktail, 1 mM sodium pyrophosphate, 1 mM sodium orthovanadate, 50 mM sodium fluoride). After 10-15 min incubation on ice, insoluble material was removed by centrifugation at 14,000 RPM in a microcentrifuge for 15 min. Supernatants were collected and total protein concentrations standardized by the BCA protein assay (Pierce, Rockford, Ill.). Immunoprecipitation was carried out by incubating whole cell lysates (200 μg total protein) with 1.25 μg anti-FAK or anti-CAS mAb 4-6 h at 4° C. followed by 20 μl protein G-agarose overnight at 4° C. Immunoprecipitates were washed 4 times in lysis buffer without inhibitors and dissociated by adding SDS-PAGE sample buffer and boiling 5 min. Whole cell lysates (30 μg total protein) or immunoprecipitates were resolved by 7.5% SDS-polyacrylamide gel electrophoresis and transferred to nitrocellulose membranes. […]
Background: In western blotting, separated proteins are transferred to a membrane and probed.

The next assay concerns αvβ3 293 cells. The experiment in a line: Phosphotyrosine immunoblot, 293 cells expressing αvβ3. The format is cell-based, human. The following applies: 10 min. The method, then: as §1, with “treatment. […]” for “treatment.”
(§2) Contortrostatin- induced signaling events are mediated by the αvβ3 integrin—The integrinbinding specificities of echistatin and flavoridin have been determined previously (Niewiarowski et al., supra; and Pfaff, M., McLane, M. A., Beviglia, L., Niewiarowski, S., and Timpl, R. (1994) Cell Adhesion and Communication 2, 491-501). […]

Assay [3] concerns c-Ha-ras transfected rat embryo (4R) cells. The following applies: cited from earlier work.
The test system of another assay is αvβ5 293 cells. The experiment in a line: Phosphotyrosine immunoblot, 293 cells expressing αvβ5. The format is cell-based, human. The following applies: 10 min. The method, then:
as §1, with “treatment. […]” for “treatment.”
as §2

Assay [4] concerns MDA-MB-435 cells. The experiment in a line: Phosphotyrosine immunoblot, MDA-MB-435 cells. The format is cell-based, human. The method, then:
as §1
Lysate preparation and immunoprecipitation—Suspended and adherent cells were washed twice with cold PBS and lysed in cold lysis buffer (50 mM Tris, pH 8.0, 150 mM NaCl, 1% Nonidet P-40, 0.5% deoxycholate, 0.1% SDS, protease inhibitor cocktail, 1 mM sodium pyrophosphate, 1 mM sodium orthovanadate, 50 mM sodium fluoride). After 10-15 min incubation on ice, insoluble material was removed by centrifugation at 14,000 RPM in a microcentrifuge for 15 min. Supernatants were collected and total protein concentrations standardized by the BCA protein assay (Pierce, Rockford, Ill.). Immunoprecipitation was carried out by incubating whole cell lysates (200 μg total protein) with 1.25 μg anti-FAK or anti-CAS mAb 4-6 h at 4° C. followed by 20 μl protein G-agarose overnight at 4° C. Immunoprecipitates were washed 4 times in lysis buffer without inhibitors and dissociated by adding SDS-PAGE sample buffer and boiling 5 min. Whole cell lysates (30 μg total protein) or immunoprecipitates were resolved by 7.5% SDS-polyacrylamide gel electrophoresis and transferred to nitrocellulose membranes.
Immunoblotting—Membranes were blocked with 5% nonfat milk/Tris-buffered saline/0.1% Tween 20 (blocking buffer) 1 h at room temperature or overnight at 4° C. Primary antibody incubations were performed in blocking buffer for 1 h at room temperature. After washing in Tris-buffered saline/0.1% Tween 20, membranes were incubated with horseradish peroxidase-conjugated secondary antibody in blocking buffer 1 h at room temperature. Membranes were washed extensively. Inimunoblots were developed using Super Signar West Pico Chemiluminescent Substrate from Pierce. Densitometry was performed using UN-SCAN-IT™, software (Silk Scientific, Orem, Utah))

In assay [5] the test system is human platelet rich plasma. As to conditions: cited from earlier work.
In assay [6] the test system is MDA-MB-435 cells. The experiment in a line: Adhesion of MDA-MB-435 cells to immobilized ECM proteins. The class given is cell-based, human. The method, then:
The effect of CN on binding of highly metastatic human breast cancer cells, MDA-MB-435 cell line, to ECM proteins was examined. Human fibronectin and vitronectin were immobilized in the wells of 96-well microtiter plates. […] In a variation of the above experiments, CN was immobilized. […] Referring to FIGS. 12 and 13, varying concentrations of GRGDSP (FIG. 12) or EDTA (FIG. 13) were used to inhibit binding of human mammary carcinoma cells to immobilized CN. CN was at 0.1 μg/well. The vertical line at each data point indicates the y-axis error bar. All experiments were conducted as three sets of triplicates for each data point.

A word on the IC50: it is the concentration needed to halve the response being measured.

Entries after “also recorded” stand apart in the source; their conditions may differ. Like-named read-outs stand apart in the source and are kept apart here.

B1: contortrostatin (protein)
chain: DAPANPCCDAATCKLTTGSQCADGLCCDQCKFMKEGTVCRRARGDDLDDYCNGISAGCPRNPFHA
Consider B1, for which the adhesion formation entry in assay [1] is listed as “decreased adhesion formation”. Also, in the assay with MDA-MB-435 cells [2], the “invasion of synthetic basement membrane by MDA-MB-435 cells” value was “inhibitory effect”. For the same molecule, in the assay on T24 cells, the “tyrosine phosphorylation in cells adherent to Matrigel” value was “significant additional increase”. The “tyrosine phosphorylation at high concentration” value with T24 cells (1000 nM) is “reduced levels of tyrosine phosphorylation”. Besides, in the assay on T24 cells (suspended cells), the “tyrosine phosphorylation of 120-140 kDa proteins” value is “also observed”. For the same molecule, the tyrosine phosphorylation result was “robust induction of tyrosine phosphorylation; also recorded: increased tyrosine phosphorylation” with αvβ3 293 cells and “no response” in the assay on αvβ5 293 cells. Further, the “Inhibition of 4R cell binding to fibronectin” value in assay [3] (CN at 1 μg/ml) is 46%; in [3] (CN at 5 μg/ml), 88%. In addition, in the assay with MDA-MB-435 cells [4] (suspended cells, 10 min), the “concentration giving maximal tyrosine phosphorylation” value was 10 nM. The “lowest concentration increasing tyrosine phosphorylation of FAK and CAS” value in the assay on MDA-MB-435 cells [4] (tumor cells, soluble contortrostatin) is given as 1 nM. The “50% inhibition (IC50) of human platelet aggregation in platelet rich plasma” value in assay [5] is 0.8 µg/mL. Besides, the “concentration that completely inhibits ADP-induced platelet aggregation” value in [5] (preincubation for 1 minute) was “approximately 100 nM”. For the same molecule, in the assay on MDA-MB-435 cells [6], the “effect on adhesion to human or rat type I collagen” value was “minimal effect”. The IC50 is 18 nM in the assay with MDA-MB-435 cells [6] (immobilized human fibronectin, read-out: IC50 for adhesion to fibronectin) and 1.5 nM in the assay on MDA-MB-435 cells [6] (immobilized human vitronectin, read-out: IC50 for adhesion to vitronectin).
